Source: article PMC6093707, “Single-particle cryo-EM structure of a voltage-activated potassium channel in lipid nanodiscs” (eLife, 2018)
Values belong to the molecule of their own block, whether it stands above or below them.

How the values were obtained:
[1] = molecular target: Kv channel auxiliary β subunit (rat) (UniProt P62483); assay: cryo-EM structure; Kv chimera α4β4 complex in MSP1E3D1 lipid nanodiscs (3:1:1 POPC:POPG:POPE); 0.7 mg/ml in 20 mM HEPES-KOH pH 7.5, 150 mM KCl, 2 mM TCEP; gold grids; C4 symmetry imposed
[2] = molecular target: Kv channel auxiliary β subunit (rat) (UniProt P62483); assay: negative staining electron microscopy; Kv chimera in lipid nanodiscs diluted to ~0.03 mg/ml, 0.7% uranyl formate; 2D class averages
[3] = molecular target: the molecule itself; assay: cryo-EM structure; Kv chimera α4β4 complex in MSP1E3D1 lipid nanodiscs (3:1:1 POPC:POPG:POPE); 0.7 mg/ml in 20 mM HEPES-KOH pH 7.5, 150 mM KCl, 2 mM TCEP; gold grids; C4 symmetry imposed

- stoichiometry N [1]: 4
- stoichiometry N [2]: 4
Molecule: Kv channel auxiliary β subunit (from UniProt P62483 36-367) (natural protein)

B1: Kv1.2–2.1 paddle chimera channel, α subunit (other)
chain: MTVATGDPVDEAAAHPGHPQDTYDPEADHECCERVVINISGLRFETQLKTLAQFPETLLGDPKKRMRYFDPLRNEYFFDRNRPSFDAILYYYQSGGRLRRPVNVPLDIFSEEIRFYELGEEAMEMFREDEGYIKEEERPLPENEFQRQVWLLFEYPESSGPARIIAIVSVMVILISIVSFCLETLPIFRDENEDMHGGGVTFHTYSQSTIGYQQSTSFTDPFFIVETLCIIWFSFEFLVRFFACPSKAGFFTNIMNIIDIVAIIPYYVTIFLTESNKSVLQFQNVRRVVQIFRIMRILRIFKLSRHSKGLQILGQTLKASMRELGLLIFFLFIGVILFSSAVYFAEADERDSQFPSIPDAFWWAVVSMTTVGYGDMVPTTIGGKIVGSLCAIAGVLTIALPVPVIVSNFNYFYHRETEGEEQAQYLQVTSCPKIPSSPDLKKSRSASTISKSDYMEIQEGVNNSNEDFREENLKTANCTLANTNYVNITKMLTDV
- stoichiometry N [3]: 4
